Experiments:
[1] = molecular target: T1, human Trop-2 expressed on cell surface (human, UniProt P09758 27-323); assay: cell-based or functional assay
T1 sequence (looked up): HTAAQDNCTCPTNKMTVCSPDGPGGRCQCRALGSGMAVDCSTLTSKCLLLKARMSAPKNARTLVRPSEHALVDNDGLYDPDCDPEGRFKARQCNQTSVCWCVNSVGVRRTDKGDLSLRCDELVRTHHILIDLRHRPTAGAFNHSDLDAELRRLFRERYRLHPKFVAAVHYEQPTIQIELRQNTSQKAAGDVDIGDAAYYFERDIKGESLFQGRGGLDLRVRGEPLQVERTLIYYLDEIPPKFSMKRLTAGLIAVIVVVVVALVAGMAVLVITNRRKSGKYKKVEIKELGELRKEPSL

[2] = molecular target: cynomolgus Trop-2-His protein (cynomolgus); assay: ELISA, coated Trop-2 protein
human Trop-2-His protein [3] = molecular target: T2, human Trop-2-His protein (human, UniProt P09758 27-274); assay: BLI (Gator Plus), Ab on HFC probe
T2 construct: extracellular domain; Assay paragraphs say only 'Trop-2-His'; also called hTrop-2; Kactus Cat #TRP-HM121; not shown: His tag
T2 sequence (looked up): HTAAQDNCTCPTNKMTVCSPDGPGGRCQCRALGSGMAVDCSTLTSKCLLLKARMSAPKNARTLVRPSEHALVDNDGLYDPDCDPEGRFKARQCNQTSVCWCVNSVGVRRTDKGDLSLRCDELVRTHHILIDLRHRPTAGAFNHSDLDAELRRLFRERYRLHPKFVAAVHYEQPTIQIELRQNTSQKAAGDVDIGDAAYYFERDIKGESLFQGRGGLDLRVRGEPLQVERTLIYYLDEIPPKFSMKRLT

[4] = molecular target: T1, human Trop-2 expressed on cell surface; assay: flow cytometry, MCF-7 cells
Method: (§1) Cells were then resuspended in FACS buffer (1×DPBS/1% FBS) at 10⁶/ml concentration. One hundred microliter (100 μl) of cells were aliquoted into a single well in 96 well plates. The antibodies to be tested were serially diluted at 1:3 fold starting at 15 μg/mL and were then added into each well. The antibodies were mixed with cells and the mixtures were incubated on ice for 1 hour. After washing with FACS buffer, one hundred microliter (100 μl) of 1:400 diluted PE-conjugated anti-human Fc secondary antibody (Jackson Immuno Research) was added into each well and incubated for 30 minutes on ice. After washing with FACS buffer, stained cells were resuspended at diluted 7-ADD (Biolegend, used at 1:100 dilution) and analyzed on Guava 11HT or 5HT (Luminex). Data was analyzed using Flowjo software. EC₅₀ values were calculated using GraphPad Prism. Sacitnzurnab govitecan was used as positive control. Anti-HEL.hIgG1 was used as isotype negative control. Similar assay was performed using MCF-7 cells (known to express human Trop-2).

human Trop-2-His protein [5] = molecular target: T2, human Trop-2-His protein; assay: ELISA, coated Trop-2 protein
Method: Purified antibodies were tested by ELISA to confirm their binding and affinity against human and cynomolgus Trop-2-His protein. Briefly, 96-well Maxisorp plates (Nunc) were coated with 100 μl/well of 0.5 μg/ml human (Kactus Cat #TRP-HM121, or Sino Biological, Cat #10428-HO8H) or cynomolgus Trop-2 protein (Kactus Cat #TRP-CM121, or Sino Biological, Cat #90893-CO8H) diluted in 1×PBS (GIBCO) overnight at 4° C. Plates were washed four times with 300 μl/well washing buffer (1×PBST, diluted from 20×PBST (Thermo Scientific) with distilled water)) and then blocked with 300 μl/well of blocking buffer (1×PBST/3% BSA (BSA, Sigma)) for 2 hours at RT on plate shaker at 100 rpm. Plates were washed and added with 100 μl/well of testing antibodies, which were serial diluted with assay buffer (PBST/1% BSA). The antibodies were incubated at room temperature for 2 hours on plate shaker at 100 rpm. Plates were washed. One hundred microliters (100 μl) of 1:10,000 diluted horseradish peroxidase (HRP) conjugated anti-hIgG antibody (Jackson Immuno Research) was added into each well and incubated at room temperature for 1 hour on plate shaker at 100 rpm. Plates were washed and added with 100 μl/well TMB substrate for color development in dark at room temperature for up to 10 minutes. After addition of 50 μl/well of stop solution (1N H₂SO₄), plates were read at 450 nm on a plate reader (SpectraMax M5). EC₅₀ values were calculated using Graphpad Prism. Sacituzumab govitecan, was used as positive control. Anti-HEL.hIgG1 was used as isotype control.

[6] = molecular target: T1, human Trop-2 expressed on cell surface; assay: flow cytometry, MDA-MB-231-GFP cells
Method: as §1

human Trop-2-His protein [7] = molecular target: T2, human Trop-2-His protein; assay: BLI (Gator Prime), positive control at 1 µg/ml on HFC probe
[8] = molecular target: cynomolgus Trop-2-His protein (cynomolgus); assay: as above
human Trop-2-His protein [9] = molecular target: T2, human Trop-2-His protein; assay: BLI (Gator Prime), positive control at 1 µg/ml on HFC probe; second line of values
[10] = molecular target: cynomolgus Trop-2-His protein (cynomolgus); assay: as above

B1: Sacituzumab govitecan (antibody, INN chains, looked up, V domains shown)
VH: QVQLQQSGSELKKPGASVKVSCKASGYTFTNYGMNWVKQAPGQGLKWMGWINTYTGEPTYTDDFKGRFAFSLDTSVSTAYLQISSLKADDTAVYFCARGGFGSSYWYFDVWGQGSLVTVSS
VL: DIQLTQSPSSLSASVGDRVSITCKASQDVSIAVAWYQQKPGKAPKLLIYSASYRYTGVPDRFSGSGSGTDFTLTISSLQPEDFAVYYCQQHYITPLTFGAGTKVEIKR
modifications: SN-38 payload (govitecan)
EC50 of ADCC (NFAT-CD16 reporter), MCF-7; average from 3 plates [1]: 2720 pM | EC50 of ADCC (NFAT-CD16 reporter), MDA-MB-231; average from 3 plates [1]: 550 pM | Internalization %, MCF-7, 0.25 µg/ml, 1 h [1]: 30% | Internalization %, MCF-7, 0.25 µg/ml, 2 h [1]: 43% | Internalization %, MCF-7, 0.25 µg/ml, 4 h [1]: 44% | Internalization %, MCF-7, 0.5 µg/ml, 1 h [1]: -4% | Internalization %, MCF-7, 0.5 µg/ml, 2 h [1]: 41% | Internalization %, MCF-7, 0.5 µg/ml, 4 h [1]: 55% | Internalization %, MDA-MB-231, 0.25 µg/ml, 2 h [1]: 41% | Internalization %, MDA-MB-231, 0.25 µg/ml, 4 h [1]: 46% | Internalization %, MDA-MB-231, 0.5 µg/ml, 2 h [1]: 42% | Internalization %, MDA-MB-231, 0.5 µg/ml, 4 h [1]: 45% | Internalization %, MDA-MB-231, 1 µg/ml, 2 h [1]: 43% | Internalization %, MDA-MB-231, 1 µg/ml, 4 h [1]: 49% | Internalization %, MDA-MB-231, 2 µg/ml, 2 h [1]: 43% | Internalization %, MDA-MB-231, 2 µg/ml, 4 h [1]: 48% | EC50 [2]: 17 pM | kon (human Trop-2-His protein [3]): 239000 M⁻¹ s⁻¹ | EC50 [4]: 2200 pM | EC50 (human Trop-2-His protein [5]): 14 pM | EC50 [6]: 90 pM | Kd (human Trop-2-His protein [7]): 755 pM | koff (human Trop-2-His protein [7]): 0.00022 s⁻¹ | kon (human Trop-2-His protein [7]): 285000 M⁻¹ s⁻¹ | Kd [8]: 614 pM | koff [8]: 0.00022 s⁻¹ | kon [8]: 405000 M⁻¹ s⁻¹ | Kd (human Trop-2-His protein [9]): 497 pM | koff (human Trop-2-His protein [9]): 0.00014 s⁻¹ | kon (human Trop-2-His protein [9]): 281000 M⁻¹ s⁻¹ | Kd [10]: 772 pM | koff [10]: 0.00025 s⁻¹ | kon [10]: 326000 M⁻¹ s⁻¹

— patent publication US20250206841A1 (ADEPT THERAPEUTICS, published 2025)
